Drawing on patent publication US5747449A (Corvas International, Inc., priority 1993, dated 1998), this text covers Ki for 7 substances.

Sequence of Factor Xa (P00742 235-488 limits assumed): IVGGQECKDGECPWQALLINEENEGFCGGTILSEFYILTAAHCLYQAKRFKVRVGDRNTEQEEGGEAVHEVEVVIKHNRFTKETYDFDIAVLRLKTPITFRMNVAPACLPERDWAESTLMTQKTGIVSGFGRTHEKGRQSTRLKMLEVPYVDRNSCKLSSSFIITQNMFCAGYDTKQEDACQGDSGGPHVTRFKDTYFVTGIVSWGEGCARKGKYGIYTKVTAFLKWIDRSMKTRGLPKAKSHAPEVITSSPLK
Sequence of Factor Xa (P00742 41-179 partner limits assumed): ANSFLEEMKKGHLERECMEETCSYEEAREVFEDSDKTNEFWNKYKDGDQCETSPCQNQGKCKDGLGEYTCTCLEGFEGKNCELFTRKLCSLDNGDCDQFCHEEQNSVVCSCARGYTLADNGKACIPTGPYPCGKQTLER

This assay deals with Factor Xa (Homo sapiens, UniProt P00742). In words: Factor Xa amidolytic assay (chromogenic substrate). In kind it is biochemical. The conditions noted are these: mutants produced in E. coli; read-out: Ki (nM), inhibition constant for Factor Xa. The protocol:
Trypsin, Factor Xa, thrombin, Factor XIIa and plasmin amidolytic assays […]
Briefly, the following were added to a 96-well microtiter plate well (see Table below):
50 μl inhibitor (various concentrations as required, diluted in TESA);
50 μl protease (suitable concentration, diluted in TBSA)
The plate was incubated at room temperature for 30 minutes or for 2 hours (Factor Xa); and 50 μl chromogenic substrate was added (as required, diluted in water). The initial rate was measured at […] during 10-30 minutes at room temperature.
To determine the inhibition constants, the initial rate (vi) was measured at various inhibitor ([It ]) and substrate concentrations, and the apparent inhibition constant (Ki) was determined by fitting the data obtained at each substrate concentration with the following equation: […]
vi /vo ={([Et ]-[It ]-Ki^*) +[([It […]
where vo is the uninhibited initial rate and [Et ] is the total enzyme concentration. Extrapolation of Ki^* values to zero substrate concentrations yields a value for the real inhibition constant.
One may read the Ki as the dissociation constant of the complex between target and ligand, obtained from inhibition or displacement. As to “3L55: BPTI with substitutions 13Ile 15Arg 17Ala 18Phe 19Asn 39Leu 46Glu”, the inhibition constant Ki was 5 nM.

For “3L60: BPTI with substitutions 13Ile 15Arg 17Tyr 18Tyr 19Lys 39Leu 46Glu”, the Ki is 4 nM.

For “5L48: BPTI with substitutions 11Glu 13Trp 15Arg 17Leu 18His 19His 34Ile 39Gly 46Glu”, the Ki turned out to be 4 nM.

In the case of “5L65: BPTI with substitutions 11Ser 13Leu 15Arg 17Leu 18His 19Lys 34Tyr 39Tyr 46Glu”, the inhibitory constant (Ki) is 5 nM.

On to “5L68: BPTI with substitutions 11Ser 13Leu 15Arg 17Leu 18His 19Lys 34Tyr 39Phe 46Glu”, for which the Ki amounted to 1.5 nM.

On to “5L69: BPTI with substitutions 11Pro 13Ile 15Arg 17Leu 18His 19Lys 34Tyr 39Met 46Glu”, for which the inhibition constant (Ki) amounted to 5 nM.

As for “5L84: BPTI with substitutions 11Glu 13Leu 15Arg 17Leu 18His 19Lys 34Tyr 39Phe 46Glu”, the Ki came out at 2 nM.
